For experiment [1], the target named is T1, Human CD3 epsilon (CD3ε), on primary human pan T cells (human, UniProt P07766 23-207).
T1 construct: Endogenous CD3 in the TCR complex on T cells; also called T-cell surface glycoprotein CD3 epsilon chain; T3E
The experiment is described as follows: flow cytometry on human T cells, anti-human IgG Fc A647 detection. How it is done:
The bsAbs were assayed for their abilities bind T cells and to induce T-cell mediated cytotoxicity against H929 cells (ATCC@CRL-9068™). […] Stain buffer with no antibody was added to bottom 4 wells and assign as background control (secondary antibody alone). Parental Cris7b, CD3B695 (bivalent mAb controls) and CD3B375 (bsAb which was monovalent for Cris-7b) were added also with full dose-response curves.
Frozen T-cells were thawed in a 37° C. water bath and transferred gently into conical tube containing warm 5 mL media (RPMI+10% FBS)/1 vial of 1×10⁶ cells. Cells were mixed and centrifuged for 5 minutes at 400×g followed by resuspension in flow staining buffer, and counted and viability checked. Cells were then plated in 50 uL/50,000 cells/well into assay plates. Assay positive control mAb was added in the first column in quadruplicates at 2× at 20 nM in the bottom 4 wells. Stain buffer with no mAb was added to the top 4 wells and assigned as background controls (secondary antibody alone). Serially diluted antibody samples were added at 50 uL/well using Intergra Viaflo according to the attached plate maps and incubated for 1 hr at 37° C. After one hour incubation, 150 uL staining buffer were added to all wells, and cells were spun at 500×g for 5 minutes to pellet cells. Cells were then washed prior to addition of Alexa Fluor 647 (A647) conjugated anti human IgG Fc specific secondary detection antibody at 2 ug/mL in staining buffer. Secondary detection antibody was added at 50 uL/well to the washed cells. Plates were covered with foil and incubated for 30 minutes on ice or in the fridge. 150 uL staining buffer were added to all wells, and cells were spun at 500×g for 5 min to pellet cells. Cells were resuspended in 20 uL running buffer containing 1:1000 dilution of SYTOX™ green dead cell stain and run plates on iQue® Screener flow cytometer (Essen BioScience, Inc.). Briefly, cells were gated on FCS vs. SCS dot plot to eliminate debris. Singlets were gated on SCS-A vs SCS-H dot plot and from singlet population, live cells gated choosing BL1 channel for low/negative with SYTOX™ green viability stain (Thermo Fisher).
For orientation: A flow cytometer gives signals particle by particle.

Experiment [2] has as its target T2, CD3 on primary human pan T cells (human, UniProt P07766 23-207).
T2 construct: on cells it stands in the TCR/CD3 complex; also called Pan T-cells (CD3-positive); endogenous CD3
The experiment in a line: flow cytometry, pan T-cells.

The target of experiment [3] is T3, TRCW5 antigen (CD3δε-Fc-Avi) (biotinylated (site not stated)).
T3 construct: also called recombinant CD3
The experiment is described as follows: ELISA.

The target in experiment [4] is T3, TRCW5 antigen (CD3δε-Fc-Avi). The experiment in a line: binding after heat.
For experiment [5] the target is unchanged. The experiment in a line: ELISA after heat.

A word on the EC50: it is the concentration that produces a half-maximal response.

T3 sequence (chain, as listed by the source mutant limits assumed): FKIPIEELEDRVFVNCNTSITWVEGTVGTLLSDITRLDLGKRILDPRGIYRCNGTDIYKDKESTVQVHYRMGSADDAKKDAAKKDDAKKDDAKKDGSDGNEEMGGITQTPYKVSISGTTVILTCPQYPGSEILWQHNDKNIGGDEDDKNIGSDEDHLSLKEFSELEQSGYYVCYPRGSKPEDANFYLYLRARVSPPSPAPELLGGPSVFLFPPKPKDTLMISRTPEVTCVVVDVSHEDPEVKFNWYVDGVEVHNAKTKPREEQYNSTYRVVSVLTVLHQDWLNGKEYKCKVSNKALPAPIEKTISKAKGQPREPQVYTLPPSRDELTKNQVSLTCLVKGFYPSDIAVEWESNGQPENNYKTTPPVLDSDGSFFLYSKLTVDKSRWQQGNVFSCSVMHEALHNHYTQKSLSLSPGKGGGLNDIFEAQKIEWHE
T2 sequence (P07766 23-207 limits assumed): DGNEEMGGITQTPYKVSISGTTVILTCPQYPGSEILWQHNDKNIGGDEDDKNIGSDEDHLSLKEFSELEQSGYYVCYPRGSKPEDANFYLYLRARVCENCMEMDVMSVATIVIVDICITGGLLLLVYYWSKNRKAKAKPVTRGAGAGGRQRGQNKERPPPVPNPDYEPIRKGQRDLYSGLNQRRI
T1 sequence (P07766 23-207 limits assumed): as above

B1: BC3B102 (bispecific antibody, human IgG1, kappa, L234A L235A)
chain: QVQLVQSGAEVKKPGSSVKVSCKASGYTFTRSTMHWVKQAPGQGLEWIGYINPSSAYTNYNQKFQGRVTLTADKSTSTAYMELSSLRSEDTAVYYCASPQVHYDYNGFPYWGQGTLVTVSSGGSEGKSSGSGSESKSTGGSEIVLTQSPATLSASPGERVTLSCSASSSVSYMNWYQQKPGQAPRRWIYDSSKLASGVPARFSGSGSGRDYTLTISSLEPEDFAVYYCQQWSRNPPTFGGGTKVEIKEPKSSDKTHTCPPCPAPEAAGGPSVFLFPPKPKDTLMISRTPEVTCVVVSVSHEDPEVKFNWYVDGVEVHNAKTKPREEQYNSTYRVVSVLTVLHQDWLNGKEYKCKVSNKALPAPIEKTISKAKGQPREPQVYVYPPSREEMTKNQVSLTCLVKGFYPSDIAVEWESNGQPENNYKTTPPVLDSDGSFALVSKLTVDKSRWQQGNVFSCSVMHEALHNHYTQKSLSLSPG
heavy: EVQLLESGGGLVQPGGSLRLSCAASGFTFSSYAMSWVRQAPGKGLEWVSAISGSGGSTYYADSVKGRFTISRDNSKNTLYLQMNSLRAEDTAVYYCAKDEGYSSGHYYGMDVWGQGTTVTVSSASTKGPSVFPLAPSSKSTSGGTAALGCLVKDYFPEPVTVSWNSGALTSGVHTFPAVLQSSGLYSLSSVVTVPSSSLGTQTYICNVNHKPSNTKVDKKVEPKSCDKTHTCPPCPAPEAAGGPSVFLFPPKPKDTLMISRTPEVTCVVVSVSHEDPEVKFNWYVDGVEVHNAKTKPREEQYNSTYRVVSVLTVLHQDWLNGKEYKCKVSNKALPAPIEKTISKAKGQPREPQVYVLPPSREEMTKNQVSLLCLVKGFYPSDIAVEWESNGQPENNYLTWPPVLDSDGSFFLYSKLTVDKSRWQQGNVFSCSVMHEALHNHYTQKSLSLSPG
light: EIVLTQSPGTLSLSPGERATLSCRASQSISSSFLTWYQQKPGQAPRLLIYGASSRATGIPDRFSGGGSGTDFTLTISRLEPEDFAVYYCQHYGSSPMYTFGQGTKLEIKRTVAAPSVFIFPPSDEQLKSGTASVVCLLNNFYPREAKVQWKVDNALQSGNSQESVTEQDSKDSTYSLSSTLTLSKADYEKHKVYACEVTHQGLSSPVTKSFNRGEC
notes: IgG1 BCMAxCD3; HC1: CD3B2030 HL scFv-Fc; also called BC3B102.001; B2030 HL
As to B1, the EC50 in experiment [1] was 3 nM. That is a single-digit nanomolar value.

B2: CD3B2030 (scFv)
scFv: QVQLVQSGAEVKKPGSSVKVSCKASGYTFTRSTMHWVKQAPGQGLEWIGYINPSSAYTNYNQKFQGRVTLTADKSTSTAYMELSSLRSEDTAVYYCASPQVHYDYNGFPYWGQGTLVTVSSGGSEGKSSGSGSESKSTGGSEIVLTQSPATLSASPGERVTLSCSASSSVSYMNWYQQKPGQAPRRWIYDSSKLASGVPARFSGSGSGRDYTLTISSLEPEDFAVYYCQQWSRNPPTFGGGTKVEIK
On to B2, for which, in experiment [2], the “% Binding retained on T-cells, 55° C.” value turned out to be 1.05 fraction; the “% Binding retained on T-cells, 60° C.” value is 1.1 fraction; the “% Binding retained on T-cells, 65° C.” value was 0.757 fraction; the “% Binding retained on T-cells, RT” value is 1 fraction. Besides, a half-maximal effect in experiment [3] (EC50) was put at 8.84 nM. Also, in experiment [4], the “% Retained 55° C.” value stood at 104%, the “% Retained 60° C.” value came out at 102% and the “% Retained 65° C.” value came to 41.3%. In experiment [5], the “% Retained 55° C.” value stood at 106%, the “% Retained 60° C.” value stood at 101% and the “% Retained 65° C.” value was found to be 36%.

B3: CD3B2089 N106S (scFv)
scFv: QVQLVQSGAEVKKPGSSVKVSCKASGYTFTRSTMHWVRQAPGQGLEWMGYINPSSAYTNYAQKFQGRVTLTADKSTSTAYMELSSLRSEDTAVYYCASPQVHYDYSGFPYWGQGTLVTVSSGGSEGKSSGSGSESKSTGGSEIVLTQSPATLSASPGERVTLSCSASSSVSYMNWYQQKPGQAPRRWIYDSSKLASGVPARFSGSGSGRDYTLTISSLEPEDFAVYYCQQWSRNPPTFGGGTKVEIK
In experiment [3], B3 registered an EC50 of 10 nM. Besides, in experiment [4], the “% Retained 55° C.” value worked out at 102%, the “% Retained 60° C.” value is 90.2% and the “% Retained 65° C.” value came out at 5.4%.

B4: CD3B2051 (scFv)
scFv: QVQLVQSGAEVKKPGSSVKVSCKASGYTFTRSTMHWVKQAPGQGLEWMGYINPSSAYTNYNQKFQGRVTLTADKSTSTAYMELSSLRSEDTAVYYCASPQVHYDYNGFPYWGQGTLVTVSSGGSEGKSSGSGSESKSTGGSEIVLTQSPATLSASPGERVTLSCSASSSVSYMNWYQQKPGQAPRRLIYDSSKLASGVPARFSGSGSGRDYTLTISSLEPEDFAVYYCQQWSRNPPTFGGGTKVEIK
For the molecule B4, the EC50 in experiment [3] came to 8.73 nM. Moreover, in experiment [4], the “% Retained 55° C.” value worked out at 104%, the “% Retained 60° C.” value amounted to 95% and the “% Retained 65° C.” value is 10.9%. Moreover, in experiment [5], the “% Retained 55° C.” value stood at 109%, the “% Retained 60° C.” value was found to be 94% and the “% Retained 65° C.” value is 32%.

B5: CD3B2089 N106R (scFv)
scFv: QVQLVQSGAEVKKPGSSVKVSCKASGYTFTRSTMHWVRQAPGQGLEWMGYINPSSAYTNYAQKFQGRVTLTADKSTSTAYMELSSLRSEDTAVYYCASPQVHYDYRGFPYWGQGTLVTVSSGGSEGKSSGSGSESKSTGGSEIVLTQSPATLSASPGERVTLSCSASSSVSYMNWYQQKPGQAPRRWIYDSSKLASGVPARFSGSGSGRDYTLTISSLEPEDFAVYYCQQWSRNPPTFGGGTKVEIK
The molecule B5 displayed an EC50 in experiment [3] of 11.2 nM. Also, in experiment [4], the “% Retained 55° C.” value worked out at 102%, the “% Retained 60° C.” value came out at 103% and the “% Retained 65° C.” value turned out to be 60.4%.

B6: CD3B2089 N106I (scFv)
scFv: QVQLVQSGAEVKKPGSSVKVSCKASGYTFTRSTMHWVRQAPGQGLEWMGYINPSSAYTNYAQKFQGRVTLTADKSTSTAYMELSSLRSEDTAVYYCASPQVHYDYIGFPYWGQGTLVTVSSGGSEGKSSGSGSESKSTGGSEIVLTQSPATLSASPGERVTLSCSASSSVSYMNWYQQKPGQAPRRWIYDSSKLASGVPARFSGSGSGRDYTLTISSLEPEDFAVYYCQQWSRNPPTFGGGTKVEIK
Turning to B6, the EC50 in experiment [3] came out at 17.9 nM. Further, in experiment [4], the “% Retained 55° C.” value came to 40.6%, the “% Retained 60° C.” value came to 2.5% and the “% Retained 65° C.” value turned out to be 0.9%.

B7: CD3B2089 N106T (scFv)
scFv: QVQLVQSGAEVKKPGSSVKVSCKASGYTFTRSTMHWVRQAPGQGLEWMGYINPSSAYTNYAQKFQGRVTLTADKSTSTAYMELSSLRSEDTAVYYCASPQVHYDYTGFPYWGQGTLVTVSSGGSEGKSSGSGSESKSTGGSEIVLTQSPATLSASPGERVTLSCSASSSVSYMNWYQQKPGQAPRRWIYDSSKLASGVPARFSGSGSGRDYTLTISSLEPEDFAVYYCQQWSRNPPTFGGGTKVEIK
Turning to B7, the EC50 in experiment [3] is 11.1 nM. Moreover, in experiment [4], the “% Retained 55° C.” value was found to be 108%, the “% Retained 60° C.” value amounted to 76.7% and the “% Retained 65° C.” value was found to be 1.4%.

B8: CD3B2089 N106F (scFv)
scFv: QVQLVQSGAEVKKPGSSVKVSCKASGYTFTRSTMHWVRQAPGQGLEWMGYINPSSAYTNYAQKFQGRVTLTADKSTSTAYMELSSLRSEDTAVYYCASPQVHYDYFGFPYWGQGTLVTVSSGGSEGKSSGSGSESKSTGGSEIVLTQSPATLSASPGERVTLSCSASSSVSYMNWYQQKPGQAPRRWIYDSSKLASGVPARFSGSGSGRDYTLTISSLEPEDFAVYYCQQWSRNPPTFGGGTKVEIK
Consider B8, for which, in experiment [3], the EC50 was 10.1 nM. In experiment [4], the “% Retained 55° C.” value is 113%, the “% Retained 60° C.” value came out at 101% and the “% Retained 65° C.” value was 36.2%.

B9: CD3B2089 (scFv)
scFv: QVQLVQSGAEVKKPGSSVKVSCKASGYTFTRSTMHWVRQAPGQGLEWMGYINPSSAYTNYAQKFQGRVTLTADKSTSTAYMELSSLRSEDTAVYYCASPQVHYDYNGFPYWGQGTLVTVSSGGSEGKSSGSGSESKSTGGSEIVLTQSPATLSASPGERVTLSCSASSSVSYMNWYQQKPGQAPRRWIYDSSKLASGVPARFSGSGSGRDYTLTISSLEPEDFAVYYCQQWSRNPPTFGGGTKVEIK
As for B9, in experiment [2], the “% Binding retained on T-cells, 55° C.” value turned out to be 1.08 fraction; the “% Binding retained on T-cells, 60° C.” value came out at 0.494 fraction; the “% Binding retained on T-cells, 65° C.” value came to 0.111 fraction; the “% Binding retained on T-cells, RT” value was found to be 1 fraction. This molecule also displayed an EC50 in experiment [3] of 8.79 nM. In addition, in experiment [4], the “% Retained 55° C.” value was found to be 104%, the “% Retained 60° C.” value came out at 109% and the “% Retained 65° C.” value was determined as 15.1%. In experiment [5], the “% Retained 55° C.” value is 111%, the “% Retained 60° C.” value was determined as 108% and the “% Retained 65° C.” value worked out at 41%.

B10: CD3B2030 N106Q (scFv)
scFv: QVQLVQSGAEVKKPGSSVKVSCKASGYTFTRSTMHWVKQAPGQGLEWIGYINPSSAYTNYNQKFQGRVTLTADKSTSTAYMELSSLRSEDTAVYYCASPQVHYDYQGFPYWGQGTLVTVSSGGSEGKSSGSGSESKSTGGSEIVLTQSPATLSASPGERVTLSCSASSSVSYMNWYQQKPGQAPRRWIYDSSKLASGVPARFSGSGSGRDYTLTISSLEPEDFAVYYCQQWSRNPPTFGGGTKVEIK
notes: also called CD3B2030 NtoQ
For the molecule B10, the EC50 in experiment [3] was 10 nM. Moreover, in experiment [4], the “% Retained 55° C.” value came to 110%, the “% Retained 60° C.” value is 97.5% and the “% Retained 65° C.” value came out at 72.3%. For the same molecule, in experiment [5], the “% Retained 55° C.” value was 111%, the “% Retained 60° C.” value was 105% and the “% Retained 65° C.” value was found to be 55%.

For the origin of these results see US20250145711A1 (Janssen / Centocor, published 2025).
